Here are results for six molecules from patent publication US20090175866A1, “TREATMENT OF B-CELL MALIGNANCIES” (priority 2004, published 2009).

Assay [1] concerns the target T1, FGFR3 (Homo sapiens, UniProt P22607). In words: Affinity and Koff to FGFR3 measured by BIAcore. It is filed as binding. (In general: Surface plasmon resonance follows binding to a sensor surface in real time, without labels.)
Assay [2] deals with T1, FGFR3. In words: FGFR3 domain specificity of binding.

T1 sequence (P22607 23-806): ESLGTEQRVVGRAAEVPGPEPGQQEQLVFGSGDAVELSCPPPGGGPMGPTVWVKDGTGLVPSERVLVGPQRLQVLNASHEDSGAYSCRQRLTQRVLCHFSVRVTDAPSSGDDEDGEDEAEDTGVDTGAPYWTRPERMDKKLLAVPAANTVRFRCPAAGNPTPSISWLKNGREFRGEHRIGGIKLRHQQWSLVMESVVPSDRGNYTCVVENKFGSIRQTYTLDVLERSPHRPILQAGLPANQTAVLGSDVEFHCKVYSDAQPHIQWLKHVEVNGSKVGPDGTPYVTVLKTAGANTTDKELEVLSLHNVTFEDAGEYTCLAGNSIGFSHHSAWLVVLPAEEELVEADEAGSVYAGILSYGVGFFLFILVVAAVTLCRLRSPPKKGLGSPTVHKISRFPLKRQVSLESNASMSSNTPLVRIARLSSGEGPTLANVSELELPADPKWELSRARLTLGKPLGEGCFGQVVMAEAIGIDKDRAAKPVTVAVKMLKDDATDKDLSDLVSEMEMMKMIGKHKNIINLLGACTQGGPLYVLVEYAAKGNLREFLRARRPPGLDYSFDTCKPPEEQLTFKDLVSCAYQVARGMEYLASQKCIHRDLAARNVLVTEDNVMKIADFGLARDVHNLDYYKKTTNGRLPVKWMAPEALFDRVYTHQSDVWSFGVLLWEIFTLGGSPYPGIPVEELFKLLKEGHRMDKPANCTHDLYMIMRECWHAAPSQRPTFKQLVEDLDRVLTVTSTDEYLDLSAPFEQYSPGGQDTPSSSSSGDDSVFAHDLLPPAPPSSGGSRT

B1: PRO-002: HuCAL anti-FGFR3 clone; VH-CDR3 SEQ ID NO:2, VL-CDR3 SEQ ID NO:11 (antibody, V domains shown)
VH: QVQLVQSGAEVKKPGASVKVSCKASGYTFTSYYMHWVRQAPGQGLEWMGWINPNSGGTNYAQKFQGRVTMTRDTSISTAYMELSSLRSEDTAVYYCARDFLGYEFDYWGQGTLVTVSS
VL: DIELTQPPSVSVAPGQTARISCSGDALGDKYASWYQQKPGQAPVLVIYDDSDRPSGIPERFSGSNSGNTATLTISGTQAEDEADYYCQSYDYSADYVFGGGTKLTVLGQ
In general, Kd refers to the concentration at which binding is half-saturated. The low end stands for a tighter complex, the high end for a looser complex. Molecule B1 yielded a dissociation constant Kd with FGFR3 [1] of 37 nM. Besides, the “FGFR3 Domain Specificity” value in the assay with FGFR3 [2] turned out to be 2.

B2: PRO-012: HuCAL anti-FGFR3 clone; VH-CDR3 SEQ ID NO:3, VL-CDR3 SEQ ID NO:12 (antibody, V domains shown)
VH: QVQLKESGPALVKPTQTLTLTCTFSGFSLSTSGVGVGWIRQPPGKALEWLALIDWDDDKYYSTSLKTRLTISKDTSKNQVVLTMTNMDPVDTATYYCARYHSWYEMGYYGSTVGYMFDYWGQGTLVTVSS
VL: DIELTQPPSVSVAPGQTARISCSGDALGDKYASWYQQKPGQAPVLVIYDDSDRPSGIPERFSGSNSGNTATLTISGTQAEDEADYYCQSYDFDFAVFGGGTKLTVLGQ
In turn, B2 showed a Kd with FGFR3 [1] of 14 nM. The “FGFR3 Domain Specificity” value in the assay with FGFR3 [2] is recorded as 2.

B3: PRO-054: HuCAL anti-FGFR3 clone; VH-CDR3 SEQ ID NO:8, VL-CDR3 SEQ ID NO:17 (antibody, V domains shown)
VH: QVQLVQSGAEVKKPGASVKVSCKASGYTFTSYYMHWVRQAPGQGLEWMGWINPNSGGTNYAQKFQGRVTMTRDTSISTAYMELSSLRSEDTAVYYCARNMAYTNYQYVNMPHFDYWGQGTLVTVSS
VL: DIELTQPPSVSVAPGQTARISCSGDALGDKYASWYQQKPGQAPVLVIYDDSDRPSGIPERFSGSNSGNTATLTISGTQAEDEADYYCQSYDYFKLVFGGGTKLTVLGQ
On to B3, for which the Kd with FGFR3 [1] came to 3.7 nM. In addition, the “FGFR3 Domain Specificity” value in the assay with FGFR3 [2] worked out at 3c.

B4: PRO-026: HuCAL anti-FGFR3 clone; VH-CDR3 SEQ ID NO:6, VL-CDR3 SEQ ID NO:15 (antibody, V domains shown)
VH: QVQLVQSGAEVKKPGASVKVSCKASGYTFTSYYMHWVRQAPGQGLEWMGWINPNSGGTNYAQKFQGRVTMTRDTSISTAYMELSSLRSEDTAVYYCARGYWYAYFTYINYGYFDNWGQGTLVTVSS
VL: DIALTQPASVSGSPGQSITISCTGTSSDVGGYNYVSWYQQHPGKAPKLMIYDVSNRPSGVSNRFSGSKSGNTASLTISGLQAEDEADYYCQSYDNNSDVVFGGGTKLTVLGQ
B4 displayed a Kd with FGFR3 [1] of 4 nM. The “FGFR3 Domain Specificity” value with FGFR3 [2] is reported as 3c.

B5: PRO-055: HuCAL anti-FGFR3 clone; VH-CDR3 SEQ ID NO:9, VL-CDR3 SEQ ID NO:18 (antibody, V domains shown)
VH: QVQLVQSGAEVKKPGASVKVSCKASGYTFTSYYMHWVRQAPGQGLEWMGWINPNSGGTNYAQKFQGRVTMTRDTSISTAYMELSSLRSEDTAVYYCARSMNSTMYWYLRRVLFDHWGQGTLVTVSS
VL: DIALTQPASVSGSPGQSITISCTGTSSDVGGYNYVSWYQQHPGKAPKLMIYDVSNRPSGVSNRFSGSKSGNTASLTISGLQAEDEADYYCQSYDMYNYIVFGGGTKLTVLGQ
For the molecule B5, the Kd with FGFR3 [1] worked out at 2.9 nM. The “FGFR3 Domain Specificity” value with FGFR3 [2] was determined as 3c.

B6: PRO-029: HuCAL anti-FGFR3 clone; VH-CDR3 SEQ ID NO:7, VL-CDR3 SEQ ID NO:16 (antibody, V domains shown)
VH: QVQLVQSGAEVKKPGASVKVSCKASGYTFTSYYMHWVRQAPGQGLEWMGWINPNSGGTNYAQKFQGRVTMTRDTSISTAYMELSSLRSEDTAVYYCARTWQYSYFYYLDGGYYFDIWGQGTLVTVSS
VL: DIVLTQSPATLSLSPGERATLSCRASQSVSSSYLAWYQQKPGQAPRLLIYGASSRATGVPARFSGSGSGTDFTLTISSLEPEDFATYYCQQTNNAPVTFGQGTKVEIKRT
On to B6, for which, in the assay with FGFR3 [1], the Kd was determined as 6 nM. In addition, the “FGFR3 Domain Specificity” value with FGFR3 [2] turned out to be 3c.
